Experimental data from patent publication US20130236459A1 (MERRIMACK PHARMACEUTICALS, published 2013).
Like-named read-outs stand apart in the source and are kept apart here.

Experiments:
[1] = molecular target: T1, IGF-1R (receptor for insulin-like growth factor 1), endogenous on human tumor cell lines (human, UniProt P08069 31-1367); assay: cell-based or functional assay
[2] = molecular target: T2, rat IGF-1R-His (rat, UniProt P24062 31-936, limits assumed); assay: ELISA, species specific IGF-1R-His coated plate
T2 construct: not shown: His tag, not further described
Experimental: (§1) 96-well Reacti-bind® plates (Pierce, Fisher cat. No. PI-I5041) are coated with 50 ul of species specific ErbB3-His or IGF-1R-His (R&D Systems, cat. No. 348-RB and 305-GR, respectively) at 2 ug/ml in PBS and incubated overnight at 4° C. The next day plates are washed with PBS+0.05% Tween-20 (PBS-T) and blocked for 1 hr. at room temperature with 100 ul of Protein-Free Blocking Buffer (Pierce). Plates are washed with PBS-T and 50 ul of each PBA is added in duplicate. Concentrations start at 500 nM (in PBS-T) and included ten additional two-fold dilutions and one blank (PBS-T only). Plates are incubated at room temperature for two hours and then washed with PBS-T. 50 ul of anti-Fc-HRP (Jackson Labs) is added at 1:40,000 in PBS-T, and plates are incubated in the dark for 1 hr. at room temperature. Plates are again washed with PBS-T and 100 ul of TMB substrate (Thermo Scientific, TMB and peroxide solution mixed 1:1) is added. The plates are incubated for 5-15 minutes at room temperature until a blue color develops, and the reaction is stopped with 100 ul of STOP solution (Cell Signaling Technology). The absorbance is read at 450 nm on a PerkinElmer Envision plate reader, and binding curves are generated using GraphPad Prism.

[3] = molecular target: T3, mouse IGF-1R-His (mouse, UniProt Q60751 31-936, limits assumed); assay: ELISA, species specific IGF-1R-His coated plate
T3 construct: not shown: His tag, not further described
Experimental: as §1

[4] = molecular target: T4, ErbB3 (HER3), endogenous on human tumor cell lines (human, UniProt P21860 20-1342); assay: cell-based or functional assay
[5] = molecular target: T1, IGF-1R (receptor for insulin-like …); assay: cell-based or functional assay; remark: listed apart in the source
[6] = molecular target: T4, ErbB3 (HER3), endogenous on human tumor …; assay: cell-based or functional assay; remark: listed apart in the source
[7] = molecular target: T1, IGF-1R (receptor for insulin-like …); assay: cell-based or functional assay; remark: listed apart in the source
[8] = molecular target: T4, ErbB3 (HER3), endogenous on human tumor …; assay: cell-based or functional assay; remark: listed apart in the source
[9] = molecular target: T1, IGF-1R (receptor for insulin-like …); assay: cell-based or functional assay; remark: listed apart in the source
[10] = molecular target: T5, rat ErbB3-His (rat, UniProt Q62799 20-641, limits assumed); assay: ELISA, species specific ErbB3-His coated plate
T5 construct: not shown: His tag, not further described for this species form
Experimental: as §1

[11] = molecular target: T6, mouse ErbB3-His (mouse, UniProt Q61526 20-641, limits assumed); assay: ELISA, species specific ErbB3-His coated plate
T6 construct: not shown: His tag, not further described for this species form
Experimental: as §1

T4 sequence (P21860 20-1342 limits assumed): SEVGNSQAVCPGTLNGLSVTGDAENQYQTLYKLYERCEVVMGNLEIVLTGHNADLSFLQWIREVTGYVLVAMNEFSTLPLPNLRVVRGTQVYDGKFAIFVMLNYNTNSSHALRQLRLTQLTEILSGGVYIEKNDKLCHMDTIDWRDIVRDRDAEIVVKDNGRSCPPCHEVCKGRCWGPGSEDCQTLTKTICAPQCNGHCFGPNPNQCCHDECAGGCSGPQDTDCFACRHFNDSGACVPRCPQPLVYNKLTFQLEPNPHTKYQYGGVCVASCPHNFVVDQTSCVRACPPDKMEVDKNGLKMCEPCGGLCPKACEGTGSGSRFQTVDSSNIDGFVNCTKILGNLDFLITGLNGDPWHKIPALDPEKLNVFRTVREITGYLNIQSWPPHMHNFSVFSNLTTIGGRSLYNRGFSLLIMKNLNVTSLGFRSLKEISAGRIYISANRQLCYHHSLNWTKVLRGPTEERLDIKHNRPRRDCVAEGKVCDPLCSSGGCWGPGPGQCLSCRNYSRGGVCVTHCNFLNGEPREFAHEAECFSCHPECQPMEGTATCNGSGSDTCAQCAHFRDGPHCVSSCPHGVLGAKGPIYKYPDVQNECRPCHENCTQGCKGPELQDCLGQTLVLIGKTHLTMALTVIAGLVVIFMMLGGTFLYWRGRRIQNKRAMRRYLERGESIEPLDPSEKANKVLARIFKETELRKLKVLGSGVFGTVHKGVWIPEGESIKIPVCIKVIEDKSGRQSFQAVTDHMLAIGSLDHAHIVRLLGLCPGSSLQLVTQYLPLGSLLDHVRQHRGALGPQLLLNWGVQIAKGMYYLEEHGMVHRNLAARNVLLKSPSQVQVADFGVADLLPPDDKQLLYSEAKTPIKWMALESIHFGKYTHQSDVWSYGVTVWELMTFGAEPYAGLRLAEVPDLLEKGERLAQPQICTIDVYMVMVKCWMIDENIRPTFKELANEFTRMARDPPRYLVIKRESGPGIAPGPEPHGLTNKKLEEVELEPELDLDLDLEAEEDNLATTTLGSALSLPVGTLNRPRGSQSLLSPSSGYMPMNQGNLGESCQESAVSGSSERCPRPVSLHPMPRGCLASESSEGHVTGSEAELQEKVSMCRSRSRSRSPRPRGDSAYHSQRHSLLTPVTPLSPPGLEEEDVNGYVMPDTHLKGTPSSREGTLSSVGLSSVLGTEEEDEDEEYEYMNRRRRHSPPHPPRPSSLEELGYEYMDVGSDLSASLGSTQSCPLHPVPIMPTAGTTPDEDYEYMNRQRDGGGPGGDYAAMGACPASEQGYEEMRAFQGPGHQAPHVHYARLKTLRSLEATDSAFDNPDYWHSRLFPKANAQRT
T1 sequence (P08069 31-1367): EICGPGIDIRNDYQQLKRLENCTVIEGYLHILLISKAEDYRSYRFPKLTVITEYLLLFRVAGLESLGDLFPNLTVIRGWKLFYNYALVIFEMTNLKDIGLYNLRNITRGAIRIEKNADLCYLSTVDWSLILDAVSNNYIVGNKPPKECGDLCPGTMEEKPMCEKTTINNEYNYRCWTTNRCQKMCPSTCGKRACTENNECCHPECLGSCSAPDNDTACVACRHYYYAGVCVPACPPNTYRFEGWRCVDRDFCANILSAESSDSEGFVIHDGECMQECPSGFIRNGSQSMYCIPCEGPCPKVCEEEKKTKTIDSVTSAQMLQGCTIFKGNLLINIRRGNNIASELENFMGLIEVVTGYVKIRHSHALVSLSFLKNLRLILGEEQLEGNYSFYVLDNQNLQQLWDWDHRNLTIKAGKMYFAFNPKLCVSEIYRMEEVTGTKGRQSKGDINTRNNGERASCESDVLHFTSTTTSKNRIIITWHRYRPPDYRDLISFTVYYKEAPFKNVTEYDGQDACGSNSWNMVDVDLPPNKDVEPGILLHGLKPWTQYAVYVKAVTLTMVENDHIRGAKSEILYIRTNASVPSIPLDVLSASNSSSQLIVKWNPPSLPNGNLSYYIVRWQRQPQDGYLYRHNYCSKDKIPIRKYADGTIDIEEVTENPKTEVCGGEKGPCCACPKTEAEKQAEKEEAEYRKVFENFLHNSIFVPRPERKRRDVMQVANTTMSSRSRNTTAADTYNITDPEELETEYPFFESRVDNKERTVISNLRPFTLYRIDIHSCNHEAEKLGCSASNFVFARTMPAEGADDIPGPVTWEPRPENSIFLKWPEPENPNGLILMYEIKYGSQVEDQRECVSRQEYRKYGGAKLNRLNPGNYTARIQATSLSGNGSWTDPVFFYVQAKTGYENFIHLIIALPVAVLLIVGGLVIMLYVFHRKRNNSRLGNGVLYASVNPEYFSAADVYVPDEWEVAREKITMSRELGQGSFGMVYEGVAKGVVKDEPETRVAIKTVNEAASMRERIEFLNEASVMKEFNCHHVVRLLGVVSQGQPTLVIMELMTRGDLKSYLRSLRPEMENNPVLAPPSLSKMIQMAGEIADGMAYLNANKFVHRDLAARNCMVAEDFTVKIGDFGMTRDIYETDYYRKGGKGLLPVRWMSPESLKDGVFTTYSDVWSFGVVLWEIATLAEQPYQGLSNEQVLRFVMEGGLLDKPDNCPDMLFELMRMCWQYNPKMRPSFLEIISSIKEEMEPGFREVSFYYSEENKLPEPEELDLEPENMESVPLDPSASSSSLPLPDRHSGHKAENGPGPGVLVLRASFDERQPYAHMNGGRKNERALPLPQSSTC
T5 sequence (Q62799 20-641 limits assumed): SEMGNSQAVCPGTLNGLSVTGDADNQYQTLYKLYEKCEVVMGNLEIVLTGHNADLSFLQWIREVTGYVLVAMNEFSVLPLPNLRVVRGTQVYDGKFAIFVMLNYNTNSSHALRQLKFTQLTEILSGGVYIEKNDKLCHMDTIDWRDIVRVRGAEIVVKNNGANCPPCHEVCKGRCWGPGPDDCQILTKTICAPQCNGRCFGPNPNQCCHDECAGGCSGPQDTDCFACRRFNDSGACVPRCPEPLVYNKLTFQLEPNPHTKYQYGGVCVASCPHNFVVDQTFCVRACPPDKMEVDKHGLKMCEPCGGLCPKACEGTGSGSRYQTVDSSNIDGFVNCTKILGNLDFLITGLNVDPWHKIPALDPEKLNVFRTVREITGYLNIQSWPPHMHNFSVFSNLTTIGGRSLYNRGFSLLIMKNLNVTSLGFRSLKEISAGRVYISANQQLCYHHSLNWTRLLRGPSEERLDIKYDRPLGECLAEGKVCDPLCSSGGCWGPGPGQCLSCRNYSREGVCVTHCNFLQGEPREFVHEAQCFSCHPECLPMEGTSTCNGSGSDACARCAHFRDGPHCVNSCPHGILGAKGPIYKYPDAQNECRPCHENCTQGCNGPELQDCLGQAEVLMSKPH
T2 sequence (P24062 31-936 limits assumed): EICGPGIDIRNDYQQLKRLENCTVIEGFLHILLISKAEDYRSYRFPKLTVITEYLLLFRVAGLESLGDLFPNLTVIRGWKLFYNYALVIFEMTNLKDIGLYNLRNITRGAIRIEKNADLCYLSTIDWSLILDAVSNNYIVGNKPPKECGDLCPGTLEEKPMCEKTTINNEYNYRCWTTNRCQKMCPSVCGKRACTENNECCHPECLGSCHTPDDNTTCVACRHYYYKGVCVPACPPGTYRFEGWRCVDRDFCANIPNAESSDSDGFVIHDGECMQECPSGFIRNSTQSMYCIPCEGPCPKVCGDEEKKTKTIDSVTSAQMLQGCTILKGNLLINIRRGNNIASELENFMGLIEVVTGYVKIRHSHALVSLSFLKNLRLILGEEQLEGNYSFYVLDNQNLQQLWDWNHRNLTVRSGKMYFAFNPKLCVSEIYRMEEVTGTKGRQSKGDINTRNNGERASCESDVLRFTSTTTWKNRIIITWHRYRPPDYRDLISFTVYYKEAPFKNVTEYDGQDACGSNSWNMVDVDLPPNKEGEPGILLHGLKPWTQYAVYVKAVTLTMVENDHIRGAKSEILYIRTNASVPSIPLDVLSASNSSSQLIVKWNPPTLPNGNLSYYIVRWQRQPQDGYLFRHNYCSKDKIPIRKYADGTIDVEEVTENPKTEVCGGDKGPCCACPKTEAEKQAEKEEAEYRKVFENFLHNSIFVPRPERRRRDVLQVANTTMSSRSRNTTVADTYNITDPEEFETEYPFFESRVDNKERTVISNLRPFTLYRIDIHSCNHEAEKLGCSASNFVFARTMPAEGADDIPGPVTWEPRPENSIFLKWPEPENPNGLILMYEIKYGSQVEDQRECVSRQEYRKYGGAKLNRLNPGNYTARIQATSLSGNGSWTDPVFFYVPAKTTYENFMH
T6 sequence (Q61526 20-641 limits assumed): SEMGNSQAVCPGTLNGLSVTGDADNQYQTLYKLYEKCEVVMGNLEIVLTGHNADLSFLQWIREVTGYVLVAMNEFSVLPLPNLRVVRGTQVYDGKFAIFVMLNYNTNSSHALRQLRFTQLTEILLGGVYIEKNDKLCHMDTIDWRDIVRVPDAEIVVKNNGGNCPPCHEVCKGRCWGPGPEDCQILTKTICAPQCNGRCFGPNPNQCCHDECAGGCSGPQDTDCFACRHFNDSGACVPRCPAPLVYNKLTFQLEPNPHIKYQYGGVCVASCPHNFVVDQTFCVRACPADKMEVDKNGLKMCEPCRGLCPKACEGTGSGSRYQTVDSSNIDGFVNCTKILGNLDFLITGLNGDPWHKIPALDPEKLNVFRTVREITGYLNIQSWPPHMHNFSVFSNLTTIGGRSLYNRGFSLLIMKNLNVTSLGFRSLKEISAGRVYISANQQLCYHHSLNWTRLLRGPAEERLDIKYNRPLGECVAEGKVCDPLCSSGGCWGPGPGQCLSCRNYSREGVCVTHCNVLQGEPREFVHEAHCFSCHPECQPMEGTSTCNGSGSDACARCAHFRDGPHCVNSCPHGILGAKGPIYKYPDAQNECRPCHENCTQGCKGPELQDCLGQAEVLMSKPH
T3 sequence (Q60751 31-936 limits assumed): as the sequence (P24062 31-936 limits assumed) above, with G271D, F629Y, L714M counted along it

% IGF1R Downregulation (A549, 24 h) [1]: 70%
% IGF1R Downregulation (BxPC-3, 24 h) [1]: 67%
binding result [2]: binds
binding result [3]: binds
pErbB3 IC50 (BxPC-3) [4]: 5.8e-07 M (inferred)
pIGF1R IC50 (BxPC-3) [5]: 1.3e-09 M (inferred)
pAKT IC50 (BxPC-3, HRG 20 ng/ml) [6]: 1.06e-10 M
pAKT IC50 (BxPC-3, HRG 200 ng/ml) [6]: 1.01e-10 M
pErbB3 IC50 (BxPC-3, HRG 20 ng/ml) [6]: 6.76e-11 M
pErbB3 IC50 (BxPC-3, HRG 200 ng/ml) [6]: 5.7e-11 M
pAKT IC50 (BxPC-3, IGF1 40 ng/ml) [7]: 3.8e-10 M
pAKT IC50 (BxPC-3, IGF1 400 ng/ml) [7]: 3.4e-10 M
pIGF1R IC50 (BxPC-3, IGF1 40 ng/ml) [7]: 1.1e-10 M
pIGF1R IC50 (BxPC-3, IGF1 400 ng/ml) [7]: 8.8e-11 M
pErbB3 % Inhibition (BxPC-3) [8]: 94%
pErbB3 IC50 (BxPC-3) [8]: 3.6e-11 M (inferred)
pIGF1R % Inhibition (BxPC-3) [9]: 91%
pIGF1R IC50 (BxPC-3) [9]: 1.3e-10 M (inferred)
binding result [10]: binds
binding result [11]: binds
B1: P4-G1-C8 (bispecific antibody, human IgG1, kappa)
heavy: not shown
light: DIQMTQSPSSLSASLGDRVTITCRASQGISSYLAWYQQKPGKAPKLLIYAKSTLQSGVPSRFSGSGSGTDFTLTISSLQPEDSATYYCQQYWTFPLTFGGGTKVEIKRTVAAPSVFIFPPSDEQLKSGTASVVCLLNNFYPREAKVQWKVDNALQSGNSQESVTEQDSKDSTYSLSSTLTLSKADYEKHKVYACEVTHQGLSSPVTKSFNRGEC
notes: IgG1-(scFv)2: anti-IGF-1R Fab, anti-ErbB3 scFv; also called P4-C8
